The results in this text go back to US20230250154A1 (CYTONICS, published 2023).

Some targets named below: Elastase; MMP9 (human, UniProt P14780 107-707, limits assumed); MMP13 (human, UniProt P45452 104-471, limits assumed); MMP8 (human, UniProt P22894 101-467, limits assumed); MMP3 (human, UniProt P08254 100-477, limits assumed).
What all share (experiment): cell-based or functional assay
For a further assay, the target named is T1, ADAMTS5 (human, UniProt Q9UNA0 262-622, limits assumed).
T1 sequence (looked up): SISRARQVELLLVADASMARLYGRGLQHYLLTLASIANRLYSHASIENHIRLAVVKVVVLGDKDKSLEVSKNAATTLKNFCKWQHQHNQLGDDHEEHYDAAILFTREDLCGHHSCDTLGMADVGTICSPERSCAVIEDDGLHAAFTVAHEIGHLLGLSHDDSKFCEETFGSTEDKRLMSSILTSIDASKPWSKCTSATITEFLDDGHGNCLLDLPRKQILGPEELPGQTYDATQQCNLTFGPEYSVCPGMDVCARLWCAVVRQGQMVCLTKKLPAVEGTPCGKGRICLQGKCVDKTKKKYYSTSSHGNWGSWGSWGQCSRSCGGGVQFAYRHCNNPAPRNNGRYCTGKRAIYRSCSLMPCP

The next assay has as its target T2, MMP7 (UniProt P09237 95-267, limits assumed).
T2 sequence (looked up): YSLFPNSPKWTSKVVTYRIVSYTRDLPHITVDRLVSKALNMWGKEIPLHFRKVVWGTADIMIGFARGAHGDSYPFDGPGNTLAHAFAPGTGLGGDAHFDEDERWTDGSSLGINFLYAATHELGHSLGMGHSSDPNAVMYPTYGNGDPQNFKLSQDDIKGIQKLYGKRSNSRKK

The next assay deals with T3, MMP1 (human, UniProt P03956 100-469, limits assumed).
T3 sequence (looked up): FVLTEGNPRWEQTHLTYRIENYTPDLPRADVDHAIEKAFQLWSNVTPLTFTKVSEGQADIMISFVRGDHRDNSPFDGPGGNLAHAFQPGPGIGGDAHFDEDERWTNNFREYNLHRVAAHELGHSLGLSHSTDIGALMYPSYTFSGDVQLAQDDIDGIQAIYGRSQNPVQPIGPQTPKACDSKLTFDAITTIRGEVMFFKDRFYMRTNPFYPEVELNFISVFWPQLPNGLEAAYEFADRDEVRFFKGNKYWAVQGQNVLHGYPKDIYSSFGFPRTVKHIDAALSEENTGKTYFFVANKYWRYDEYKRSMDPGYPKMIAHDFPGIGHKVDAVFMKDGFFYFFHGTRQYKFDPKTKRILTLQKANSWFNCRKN

In the next assay the target is T4, Cathepsin G (UniProt P08311 21-244).
T4 sequence (looked up): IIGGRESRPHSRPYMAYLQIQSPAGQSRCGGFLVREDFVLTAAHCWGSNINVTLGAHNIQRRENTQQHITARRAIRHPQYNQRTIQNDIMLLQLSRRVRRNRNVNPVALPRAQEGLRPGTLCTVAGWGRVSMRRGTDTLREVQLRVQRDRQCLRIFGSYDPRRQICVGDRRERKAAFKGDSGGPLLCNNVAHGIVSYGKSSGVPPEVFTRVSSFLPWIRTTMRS

The target of another assay is T5, MMP2 (human, UniProt P08253 110-660, limits assumed).
T5 sequence (looked up): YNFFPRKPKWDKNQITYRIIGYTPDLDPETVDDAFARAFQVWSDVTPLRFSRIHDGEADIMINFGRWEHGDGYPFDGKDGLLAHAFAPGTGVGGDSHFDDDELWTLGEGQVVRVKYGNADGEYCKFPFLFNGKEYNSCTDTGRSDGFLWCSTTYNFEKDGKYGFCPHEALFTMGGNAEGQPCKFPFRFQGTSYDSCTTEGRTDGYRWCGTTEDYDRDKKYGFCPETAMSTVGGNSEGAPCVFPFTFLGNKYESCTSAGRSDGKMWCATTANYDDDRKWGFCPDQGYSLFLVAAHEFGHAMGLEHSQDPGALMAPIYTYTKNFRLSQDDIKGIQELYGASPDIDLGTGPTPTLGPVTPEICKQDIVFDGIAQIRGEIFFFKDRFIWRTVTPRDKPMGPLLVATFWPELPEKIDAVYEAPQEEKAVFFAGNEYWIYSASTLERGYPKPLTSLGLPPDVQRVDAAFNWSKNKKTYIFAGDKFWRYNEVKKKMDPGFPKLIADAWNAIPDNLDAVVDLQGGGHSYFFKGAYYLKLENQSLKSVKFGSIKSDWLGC

Chain of MMP3 (P08254 100-477 limits assumed): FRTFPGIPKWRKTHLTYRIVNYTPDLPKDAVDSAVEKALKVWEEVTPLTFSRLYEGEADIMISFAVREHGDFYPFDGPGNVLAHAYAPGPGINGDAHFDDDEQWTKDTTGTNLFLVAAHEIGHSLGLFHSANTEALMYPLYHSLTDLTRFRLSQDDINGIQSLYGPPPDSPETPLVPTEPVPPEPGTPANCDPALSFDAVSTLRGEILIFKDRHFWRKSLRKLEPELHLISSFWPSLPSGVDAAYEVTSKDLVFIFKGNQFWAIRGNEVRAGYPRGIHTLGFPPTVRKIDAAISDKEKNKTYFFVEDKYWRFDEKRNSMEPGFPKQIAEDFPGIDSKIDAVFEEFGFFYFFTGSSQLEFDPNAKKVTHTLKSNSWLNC
Chain of MMP9 (P14780 107-707 limits assumed): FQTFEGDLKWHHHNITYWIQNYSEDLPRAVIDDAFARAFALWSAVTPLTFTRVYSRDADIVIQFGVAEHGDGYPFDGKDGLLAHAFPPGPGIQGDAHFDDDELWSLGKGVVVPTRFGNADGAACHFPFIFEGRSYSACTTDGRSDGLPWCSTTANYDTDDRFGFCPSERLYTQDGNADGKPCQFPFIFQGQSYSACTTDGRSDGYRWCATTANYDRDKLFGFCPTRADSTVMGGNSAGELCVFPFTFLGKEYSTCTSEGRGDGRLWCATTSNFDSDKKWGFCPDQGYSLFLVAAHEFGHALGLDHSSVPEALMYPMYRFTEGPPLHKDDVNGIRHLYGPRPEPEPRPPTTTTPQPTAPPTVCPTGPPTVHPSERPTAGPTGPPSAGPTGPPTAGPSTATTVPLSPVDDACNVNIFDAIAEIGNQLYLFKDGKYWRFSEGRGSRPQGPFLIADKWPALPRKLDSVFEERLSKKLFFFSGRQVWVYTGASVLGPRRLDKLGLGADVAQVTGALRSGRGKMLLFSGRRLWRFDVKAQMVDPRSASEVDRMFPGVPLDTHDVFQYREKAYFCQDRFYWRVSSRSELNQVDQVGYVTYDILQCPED
Chain of MMP8 (P22894 101-467 limits assumed): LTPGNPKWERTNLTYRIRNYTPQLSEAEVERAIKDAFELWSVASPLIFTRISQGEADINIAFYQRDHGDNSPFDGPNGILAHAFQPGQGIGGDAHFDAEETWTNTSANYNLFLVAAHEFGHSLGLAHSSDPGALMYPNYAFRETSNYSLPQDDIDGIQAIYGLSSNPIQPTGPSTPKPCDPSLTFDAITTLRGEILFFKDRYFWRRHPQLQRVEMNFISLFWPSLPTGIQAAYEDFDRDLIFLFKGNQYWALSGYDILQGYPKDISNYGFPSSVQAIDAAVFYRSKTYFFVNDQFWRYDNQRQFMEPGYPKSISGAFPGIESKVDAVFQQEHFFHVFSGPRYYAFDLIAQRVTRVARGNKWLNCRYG

B1: Variant A2M, bait region SEQ ID NO 19 (other)
chain: SVSGKPQYMVLVPSLLHTETTEKGCVLLSYLNETVTVSASLESVRGNRSLFTDLEAENDVLHCVAFAVPKSSSNEEVMFLTVQVKGPTQEFKKRTTVMVKNEDSLVFVQTDKSIYKPGQTVKFRVVSMDENFHPLNELIPLVYIQDPKGNRIAQWQSFQLEGGLKQFSFPLSSEPFQGSYKVVVQKKSGGRTEHPFTVEEFVLPKFEVQVTVPKIITILEEEMNVSVCGLYTYGKPVPGHVTVSICRKYSDASDCHGEDSQAFCEKFSGQLNSHGCFYQQVKTKVFQLKRKEYEMKLHTEAQIQEEGTVVELTGRQSSEITRTITKLSFVKVDSHFRQGIPFFGQVRLVDGKGVPIPNKVIFIRGNEANYYSNATTDEHGLVQFSINTTNVMGTSLTVRVNYKDRSPCYGYQWVSEEHEEAHHTAYLVFSPSKSFVHLEPMSHELPCGHTQTVQAHYILNGGTLLGLKKLSFYYLIMAKGGIVRTGTHGLLVKQEDMKGHFSISIPVKSDIAPVARLLIYAVLPTGDVIGDSAKYDVENCLANKVDLSFSPSQSLPASHAHLRVTAAPQSVCALRAVDQSVLLMKPDAELSASSVYNLLPEKDLTGFPGPLNDQDDEDCINRHNVYINGITYTPVSSTNEKDMYSFLEDMGLKAFTNSKIRKPKMCPQLEHGPEGEGEGEFRGVTIPENFYGVSEDLVVQISELEGRGSVEEPHTKLRKYFPETWIWDLVVVNSAGVAEVGVTVPDTITEWKAGAFCLSEDAGLGISSTASLRAFQPFFVELTMPYSVIRGEAFTLKATVLNYLPKCIRVSVQLEASPAFLAVPVEKEQAPHCICANGRQTVSWAVTPKSLGNVNFTVSAEALESQELCGTEVPSVPEHGRKDTVIKPLLVEPEGLEKETTFNSLLCPSGGEVSEELSLKLPPNVVEESARASVSVLGDILGSAMQNTQNLLQMPYGCGEQNMVLFAPNIYVLDYLNETQQLTPEIKSKAIGYLNTGYQRQLNYKHYDGSYSTFGERYGRNQGNTWLTAFVLKTFAQARAYIFIDEAHITQALIWLSQRQKDNGCFRSSGSLLNNAIKGGVEDEVTLSAYITIALLEIPLTVTHPVVRNALFCLESAWKTAQEGDHGSHVYTKALLAYAFALAGNQDKRKEVLKSLNEEAVKKDNSVHWERPQKPKAPVGHFYEPQAPSAEVEMTSYVLLAYLTAQPAPTSEDLTSATNIVKWITKQQNAQGGFSSTQDTVVALHALSKYGAATFTRTGKAAQVTIQSSGTFSSKFQVDNNNRLLLQQVSLPELPGEYSMKVTGEGCVYLQTSLKYNILPEKEEFPFALGVQTLPQTCDEPKAHTSFQISLSVSYTGSRSASNMAIVDVKMVSGFIPLKPTVKMLERSNHVSRTEVSSNHVLIYLDKVSNQTLSLFFTVLQDVPVRDLKPAIVKVYDYYETDEFAIAEYNAPCSKDLGNADYKDDDDKGASHHHHHH
In the case of B1, the “Protease Inhibition (% of WT)” value is 115 % of WT with Elastase; 530 % of WT in the assay with ADAMTS5; 39 % of WT with MMP9; 89 % of WT with MMP13; 51 % of WT with MMP8; 137 % of WT with MMP7. Besides, the “Protease Inhibition (% of WT)” value with MMP3 is 140 % of WT; in the assay with MMP1, 100 % of WT; with Cathepsin G, 90 % of WT; with MMP2 it was 36 % of WT.

B2: Variant A2M, bait region SEQ ID NO 27 (other)
chain: SVSGKPQYMVLVPSLLHTETTEKGCVLLSYLNETVTVSASLESVRGNRSLFTDLEAENDVLHCVAFAVPKSSSNEEVMFLTVQVKGPTQEFKKRTTVMVKNEDSLVFVQTDKSIYKPGQTVKFRVVSMDENFHPLNELIPLVYIQDPKGNRIAQWQSFQLEGGLKQFSFPLSSEPFQGSYKVVVQKKSGGRTEHPFTVEEFVLPKFEVQVTVPKIITILEEEMNVSVCGLYTYGKPVPGHVTVSICRKYSDASDCHGEDSQAFCEKFSGQLNSHGCFYQQVKTKVFQLKRKEYEMKLHTEAQIQEEGTVVELTGRQSSEITRTITKLSFVKVDSHFRQGIPFFGQVRLVDGKGVPIPNKVIFIRGNEANYYSNATTDEHGLVQFSINTTNVMGTSLTVRVNYKDRSPCYGYQWVSEEHEEAHHTAYLVFSPSKSFVHLEPMSHELPCGHTQTVQAHYILNGGTLLGLKKLSFYYLIMAKGGIVRTGTHGLLVKQEDMKGHFSISIPVKSDIAPVARLLIYAVLPTGDVIGDSAKYDVENCLANKVDLSFSPSQSLPASHAHLRVTAAPQSVCALRAVDQSVLLMKPDAELSASSVYNLLPEKDLTGFPGPLNDQDDEDCINRHNVYINGITYTPVSSTNEKDMYSFLEDMGLKAFTNSKIRKPKMCPQLEQYEMHGPEGEGEGEGIPENFYGVSEDLYTASELEGRGSVEEPHTKLRKYFPETWIWDLVVVNSAGVAEVGVTVPDTITEWKAGAFCLSEDAGLGISSTASLRAFQPFFVELTMPYSVIRGEAFTLKATVLNYLPKCIRVSVQLEASPAFLAVPVEKEQAPHCICANGRQTVSWAVTPKSLGNVNFTVSAEALESQELCGTEVPSVPEHGRKDTVIKPLLVEPEGLEKETTFNSLLCPSGGEVSEELSLKLPPNVVEESARASVSVLGDILGSAMQNTQNLLQMPYGCGEQNMVLFAPNIYVLDYLNETQQLTPEIKSKAIGYLNTGYQRQLNYKHYDGSYSTFGERYGRNQGNTWLTAFVLKTFAQARAYIFIDEAHITQALIWLSQRQKDNGCFRSSGSLLNNAIKGGVEDEVTLSAYITIALLEIPLTVTHPVVRNALFCLESAWKTAQEGDHGSHVYTKALLAYAFALAGNQDKRKEVLKSLNEEAVKKDNSVHWERPQKPKAPVGHFYEPQAPSAEVEMTSYVLLAYLTAQPAPTSEDLTSATNIVKWITKQQNAQGGFSSTQDTVVALHALSKYGAATFTRTGKAAQVTIQSSGTFSSKFQVDNNNRLLLQQVSLPELPGEYSMKVTGEGCVYLQTSLKYNILPEKEEFPFALGVQTLPQTCDEPKAHTSFQISLSVSYTGSRSASNMAIVDVKMVSGFIPLKPTVKMLERSNHVSRTEVSSNHVLIYLDKVSNQTLSLFFTVLQDVPVRDLKPAIVKVYDYYETDEFAIAEYNAPCSKDLGNADYKDDDDKGASHHHHHH
B2: the “Protease Inhibition (% of WT)” value with Elastase is 79 % of WT; with ADAMTS5 it was 114 % of WT; in the assay with MMP9, 13 % of WT; with MMP13, 54 % of WT; in the assay with MMP8 it was 43 % of WT; with MMP7, 138 % of WT. Further, the “Protease Inhibition (% of WT)” value with MMP3 is 33 % of WT; with MMP1, 109 % of WT; with Cathepsin G, 161 % of WT; with MMP2 it was 16 % of WT.
